The values that follow come from patent publication US20130040837, “APTAMER CELL COMPOSITIONS” (BRIGHAM AND WOMEN'S HOSPITAL, INC., published 2013).

The target of series [1] is T1, PDGF-BB (platelet-derived growth factor) (UniProt P01127 P01127:82-190). The experiment in a line: fluorescence quenching by flow cytometry on beads and MSCs, 10 nM PDGF; detection range several hundred pM to low nM on cells in PBS; best in PBS, then PBS with 0.9 mM CaCl2 and 0.5 mM MgCl2, then medium. The following applies: chain copies: 2 (inferred); label: 5'-FAM; complementary strand 5'-biotin, 3'-dabcyl. As to the method:
FIGS. 11C-11D are bar graphs depicting the performance of sensors 1 and 2 immobilized on streptavidin beads for detection of PDGF in PBS (11C) and PBS with 0.9 mM CaCl₂ and 0.5 mM MgCl₂ (11D) were studied by flow cytometry. Upon adding PDGF (10 nM), the FAM green signal is quenched. Sensor 2 functions better than sensor 1 in PBS with and without Ca/Mg.
A PDGF aptamer sensor was synthesized with FAM at the 5′ end of the aptamer and a quencher, dabcyl, at the 3′ end of the complementary strand, with a biotin molecule attached at the other end (FIG. 11A). Upon binding to the target PDGF, the aptamer undergoes a conformational change which brings FAM and dabcyl closer to each other and the fluorescence of FAM is quenched. One base pair C-G of the aptamer sensor was eliminated by changing a C base to A base (FIG. 11B). Therefore, sensor 2 has less nonspecific folding and better performance in the presence of divalent metal ions than sensor 1. Sensor 1 and 2 were immobilized on streptavidin beads, and their performances in PBS (FIG. 11C) and PBS with Ca/Mg (FIG. 11D) were studied by flow cytometry and microscopy (FIGS. 12A-12B). Upon adding PDGF (10 nM), the FAM green signal was quenched. Sensor 2 functioned better than sensor 1 in PBS with and without Ca/Mg.

The target of series [2] is T1, PDGF-BB (platelet-derived growth factor). The series is described as follows: Cy3 quenched and Cy5 enhanced with 10 nM PDGF; solution in PBS and on MSCs in PBS, PBS with Ca/Mg and medium. The following applies: chain copies: 2 (inferred); label: 5'-Cy5; complementary strand 5'-biotin, internal Cy3.
The target in series [3] is T2, L-selectin (UniProt P14151 P14151:39-332).
T2 sequence: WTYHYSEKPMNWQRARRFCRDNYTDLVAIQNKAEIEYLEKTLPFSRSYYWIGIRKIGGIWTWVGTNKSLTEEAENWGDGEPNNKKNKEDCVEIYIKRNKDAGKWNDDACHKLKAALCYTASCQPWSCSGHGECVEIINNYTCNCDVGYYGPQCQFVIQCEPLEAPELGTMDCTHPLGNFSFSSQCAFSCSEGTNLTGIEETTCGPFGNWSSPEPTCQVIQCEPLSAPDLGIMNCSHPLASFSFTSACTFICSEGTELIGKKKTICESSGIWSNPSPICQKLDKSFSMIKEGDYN
The series is described as follows: specificity control, P-Aptamer-MSC on L-selectin. To be noted: tags: coated on surface; label: 5'-biotin.

Series [4] has as its target T2, L-selectin. The series is described as follows: static adhesion normalised to L-Aptamer-MSC; PBS-MSC background 6.4±1.78. To be noted: tags: coated on surface; label: 3'-biotin. As to the method: After we confirmed the successful conjugation and the availability of aptamers on the MSC surface, we investigated the interactions between L-Aptamer-MSCs and L-selectin coated surfaces under both static and flow conditions. For the static adhesion assay, aptamer modified and unmodified MSCs were incubated with L-selectin coated surfaces for 10 minutes, and unbound cells were then removed through rinsing.

For the next series, the target named is P-selectin (UniProt P16109 P16109:42-771). The experiment in a line: specificity control, static adhesion normalised to L-Aptamer-MSC on L-selectin. To be noted: tags: P-selectin-Fc, coated on surface; chain copies: 2; label: 5'-biotin.
P-selectin, sequence (P16109 42-771, one chain of several): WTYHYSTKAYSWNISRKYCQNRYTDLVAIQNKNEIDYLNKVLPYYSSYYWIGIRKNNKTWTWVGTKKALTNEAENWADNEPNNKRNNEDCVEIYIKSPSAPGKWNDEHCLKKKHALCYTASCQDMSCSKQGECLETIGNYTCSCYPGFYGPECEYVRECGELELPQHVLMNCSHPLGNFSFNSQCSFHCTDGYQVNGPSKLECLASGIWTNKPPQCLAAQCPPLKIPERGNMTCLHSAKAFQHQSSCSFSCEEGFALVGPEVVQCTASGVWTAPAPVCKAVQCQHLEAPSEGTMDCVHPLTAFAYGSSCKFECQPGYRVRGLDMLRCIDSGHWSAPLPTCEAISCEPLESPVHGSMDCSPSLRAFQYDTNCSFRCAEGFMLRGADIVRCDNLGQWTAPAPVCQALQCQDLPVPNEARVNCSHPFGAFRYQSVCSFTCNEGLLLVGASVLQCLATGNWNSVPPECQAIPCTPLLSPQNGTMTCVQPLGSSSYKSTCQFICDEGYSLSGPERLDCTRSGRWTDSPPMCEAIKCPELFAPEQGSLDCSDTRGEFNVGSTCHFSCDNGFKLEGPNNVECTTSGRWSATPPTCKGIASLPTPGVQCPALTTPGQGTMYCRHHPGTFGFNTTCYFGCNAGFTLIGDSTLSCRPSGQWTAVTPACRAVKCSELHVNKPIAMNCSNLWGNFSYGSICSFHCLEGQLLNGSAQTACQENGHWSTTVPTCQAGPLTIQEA

T1 sequence (P01127 82-190, one chain of several): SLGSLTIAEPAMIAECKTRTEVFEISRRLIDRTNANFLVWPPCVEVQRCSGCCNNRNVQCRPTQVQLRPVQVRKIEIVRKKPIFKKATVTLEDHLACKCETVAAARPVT

B1: PDGF quench sensor 2 (structured_DNA)
DNA 1: AAGGCTACGGCACGTAGAGCATCACCATGATCCTGTGTGGTCTATGTCGTCGTTCG
DNA 2: CGAACGACGACATAGACCACA
For the molecule B1, the binding result in series [1] is reported as “binds”.

B2: PDGF FRET sensor 5 (structured_DNA)
DNA 1: AAGGCTACGGCACGTAGAGCATCACCATGATCCTGTGTGGTCTGTGTCG
DNA 2: CGACACAGACCACA
As to B2, the binding result in series [2] is reported as “binds”.

Consider CUCAACGAGCCAGGAACAUCGACGUCAGCAAACGCGAG (ssRNA, 2'-F on C and U) [P-selectin aptamer], for which, in the series with L-selectin [3], the binding result is recorded as “no binding”. For GATGTAGGGACAGTCAAATGGAGTGGTTCAACCGCCCATCTTCAACAAT (ssDNA) [scrambled sequence control DNA], the binding result with L-selectin [4] is “no binding”.

TAGCCAAGGTAACCAGTACAAGGTGCTAAACGTAATGGCTTCGGCTTAC (ssDNA, 3' inverted T) [L-selectin aptamer]: the binding result with P-selectin is recorded as “no binding”.
